Measurements as given in patent US20130064834A1 (published 2013).
Substitutions are numbered along the chain they refer to.

B1: H1H315P (antibody, V domains shown)
VH: QVQLVESGGGVVQPGRSLRLSCAASGFTFSSYGMHWVRQAPGKGLEWVAFIGFDGSNIYYGDSVRGRIIISRDNSENTLYLEMNSLRAEDTAVYYCAREKGLDWGQGTLVTVSS
VL: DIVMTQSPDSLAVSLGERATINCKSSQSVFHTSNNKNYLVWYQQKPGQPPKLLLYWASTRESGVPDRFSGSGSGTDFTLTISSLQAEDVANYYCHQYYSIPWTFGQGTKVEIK
notes: Fully human antibody cloned from B cells, made in CHO cells
B2: H1H318P (antibody, V domains shown)
VH: QVQLQESGPGLVKPSETLSLTCTVSGDSINTYYWSWFRQPPGKGLEWIGYIYYSGTTNYNPSLKSRVTISIDTPRNQFSLKLISVTAADTAVYYCARERITMIRGVTLYYYSYGMDVWGQGTTVTVSS
VL: DIQMTQSPSFLSASVGDRVTITCWASQDISSYLAWYQQKPGIAPKLLIYAASTLQSGVPSRFGGSGSGTEFTLTISSLQPEDFATYYCQQLNSYPRTFGQGTKVEIK
notes: as for B1
B3: H1H317P (antibody, V domains shown)
VH: EVQLVESGGGLVQPGGSLRLSCAVSGFTLSSYDMHWVRQPTGKGLEWVSAIGSTGDTYYPGSVKGRFTISRENAKNSLYLQMNSLRAGDTAVYYCAREGWDVPFDFWGQGTLVTVSS
VL: AIQMTQSPSSLSASVGDRVTITCRASQDIRNDLGWYQQKPGKAPKLLIYAASSLQSGVPSRFSGSGSGTDFTLTISSLQPEDFATYYCLQDYNYPWTFGQGTKVEIK
notes: as for B1
B4: H1H321P (antibody, V domains shown)
VH: QITLKESGPTLVKPTQTLTLTCTFSGFSLITSGVGVGWIRQPPGKALEWLALIYWNGDKRYSPSLKSRLTITKDTSKNQVVLTMTNMDPVDTATYYCAHRITETSYYFYYGMDVWGQGTTVTVSS
VL: not shown
notes: as for B1
B5: H1H334P (antibody, V domains shown)
VH: B4 VH with T15S, I30S, G57S, I101H, T102D, E103S, T104S
VL: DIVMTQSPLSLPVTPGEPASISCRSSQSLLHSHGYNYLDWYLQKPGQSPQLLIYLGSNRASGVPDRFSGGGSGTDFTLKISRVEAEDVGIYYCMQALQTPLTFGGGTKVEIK
notes: as for B1
B6: H1H320P (antibody, V domains shown)
VH: QVQLVQSGAEVKKPGASVKVSCKASGYTFTNYGISWVRQAPGQGLELMGWISGYNGNTNYAQELQARVTMTTDTSTSTAYMELRNLRSDDTAVYYCARDRVVVAAANYYFYSMDVWGQGTTVTVSS
VL: DVVMTQSPLSLSVTLGQPASISCRSSQSLVYSDGDTYLNWFQQRPGQSPRRLIYKVSNRDSGVPDRFSGSGSGTAFTLKISGVEAEDVGVYYCMQATHWPRTFGQGTKVEIK
notes: as for B1
B7: H1M495 (antibody, V domains shown)
VH: EVQLVESGGGLVQPGRSLRLSCAASGFTFDDYAMHWVRQAPGKGLEWVSGINWNSGSIGYADSVKGRFTISRDNAKHSLYLQMNSLRPEDTALYYCVKEVTTGYYYGMDVWGQGTTVTVSS
VL: DIQLTQSPSFLSASVGDRVTITCWASQGISSYLAWYQKKPGKAPNLLIYDASTLQSGVPSRFSGSGSGTEFTLTLSSLQPEDFATYYCQQLNIYPFTFGPGTKVDIK
notes: Hybridoma-derived chimeric antibody (human variable, mouse constant)
B8: H1M498 (antibody, V domains shown)
VH: EVQLVESGGGLVKPGGSLRLSCAASGFTFSSYSMDWVRQAPGKGLEWVSSISSSSSYIYYADSVKGRFTISRDTAKNSLYLQMNSLRDEDTAVYYCAREGSSRLFDYWGQGTLVTVSS
VL: DIQMTQSPSTLSASVGDRVTITCRASQSISSWLAWYQQRPGKAPKLLIYKASSLEGGVPSRFSGSGSGTEFTLTISSLQPEDFATYYCQQYNSYWYTFGQGTKLEIK
notes: as for B7
B9: H1M300 (antibody, V domains shown)
VH: EMQLVESGGGLVQPGGSLRLSCAASGFTFSSHWMKWVRQAPGKGLEWVANINQDGSEKYYVDSVKGRFTISRDNAKNSLFLQMNSLRAEDTAVYYCARDIVLMVYDMDYYYYGMDVWGQGTTVTVSS
VL: not shown
notes: as for B7

The binders below were run against T1, Human PCSK9-myc-myc-his (human, UniProt Q8NBP7 31-692) (assay: SPR, mAb captured, 37C).
T1 construct: also called hPCSK9-mmh; hPCSK9
Protocol: (§1) Each selected antibody was captured at a flowrate of 2 μl/min for 6 min on a goat anti-human IgG polyclonal antibody surface created through direct chemical coupling to a BIACORE™ chip to form a captured antibody surface.
B1 gave a Kd of 0.413 nM and a T1/2 of 35 min. B2 showed a Kd of 1.69 nM and a T1/2 of 28 min. B3 showed a Kd of 18.6 nM and a T1/2 of 70 min. B4 gave a Kd of 3.36 nM and a T1/2 of 23 min. Work on B5 yielded a Kd of 15.9 nM and a T1/2 of 8 min. With B6 the Kd was 1.93 nM and the T1/2 was 8 min.

Biological target: T1, Human PCSK9-myc-myc-his
Assay: SPR, mAb captured, 37C
Remark: another data set of the same source
Protocol: (§2) Each antibody was captured at a flow rate of 4 μl/min for 90 sec on a goat anti-mouse IgG polyclonal antibody surface created through direct chemical coupling to a BIACORE™ chip to form a captured antibody surface.
B7 was tested, and the Kd was 7.5 nM and the T1/2 was 19 min. B8 showed a Kd of 7.5 nM and a T1/2 of 14 min. Binder B9 has a Kd of 1.51 nM and a T1/2 of 32 min.

The binders below were run against T1, Human PCSK9-myc-myc-his (assay: SPR, mAb captured, 25C).
Protocol: as §2
B7 showed a Kd of 0.44 nM and a T1/2 of 222 min. For B8, the Kd was 6.4 nM and the T1/2 was 30 min. For B9, the Kd was 0.399 nM and the T1/2 was 170 min.

Biological target: T1, Human PCSK9-myc-myc-his
Assay: SPR, mAb captured, 25C
Remark: another data set of the same source
Protocol: as §1
With B1 the Kd was 0.129 nM and the T1/2 was 151 min. In the case of B2, the Kd is reported as 0.972 nM and the T1/2 is reported as 59 min. Binder B3 has a Kd of 30.4 nM and a T1/2 of 137 min. For B4, the Kd was 0.865 nM and the T1/2 was 106 min. B5 gave a Kd of 3.75 nM and a T1/2 of 46 min. B6 was tested, and the Kd was 0.771 nM and the T1/2 was 28 min.

Biological target: T2, Chimeric protein #1 (mPro-hCat-mC-term-mmh) (mouse; human, UniProt Q80W65 35-694)
T2 chain: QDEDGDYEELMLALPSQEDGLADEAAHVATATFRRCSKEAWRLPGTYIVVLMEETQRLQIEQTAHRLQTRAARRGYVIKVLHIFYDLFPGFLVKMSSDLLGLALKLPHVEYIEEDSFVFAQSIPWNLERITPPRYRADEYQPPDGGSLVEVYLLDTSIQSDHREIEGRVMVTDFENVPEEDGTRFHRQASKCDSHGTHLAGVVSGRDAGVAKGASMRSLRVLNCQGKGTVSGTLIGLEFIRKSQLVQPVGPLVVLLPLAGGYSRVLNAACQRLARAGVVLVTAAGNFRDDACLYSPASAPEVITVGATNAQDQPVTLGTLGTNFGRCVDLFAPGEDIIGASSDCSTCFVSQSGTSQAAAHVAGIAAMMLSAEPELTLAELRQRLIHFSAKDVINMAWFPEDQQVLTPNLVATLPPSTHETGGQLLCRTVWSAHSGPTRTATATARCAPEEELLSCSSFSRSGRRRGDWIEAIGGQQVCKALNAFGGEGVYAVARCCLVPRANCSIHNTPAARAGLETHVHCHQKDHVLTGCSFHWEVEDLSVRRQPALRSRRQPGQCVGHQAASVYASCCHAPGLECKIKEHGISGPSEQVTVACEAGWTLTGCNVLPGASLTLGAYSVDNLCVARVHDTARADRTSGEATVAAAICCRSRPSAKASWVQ
Assay: ELISA, mAb coated, 1.2 nM antigen;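 further: antigen allowed to bind for 1 h at room temperature, then captured protein revealed with an HRP-linked polyclonal anti-myc antibody and read as optical density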
Description: (§3) After 1 hr binding at RT, the plate was washed and bound test protein detected using HRP-conjugated anti-myc polyclonal antibody (++=OD>1.0; +=OD 0.4-1.0; −=OD<0.4).
Work on B2 yielded an OD of over 1 od. For B7, the OD was under 0.4 od. For B5, the OD was over 1 od. Binder B8 has an OD of under 0.4 od. B9 gave an OD of over 1 od. B6 gave an OD of under 0.4 od.

Biological target: T3, Chimeric protein #3 (mPro-mCat-hC-term-mmh) (mouse; human)
T3 chain: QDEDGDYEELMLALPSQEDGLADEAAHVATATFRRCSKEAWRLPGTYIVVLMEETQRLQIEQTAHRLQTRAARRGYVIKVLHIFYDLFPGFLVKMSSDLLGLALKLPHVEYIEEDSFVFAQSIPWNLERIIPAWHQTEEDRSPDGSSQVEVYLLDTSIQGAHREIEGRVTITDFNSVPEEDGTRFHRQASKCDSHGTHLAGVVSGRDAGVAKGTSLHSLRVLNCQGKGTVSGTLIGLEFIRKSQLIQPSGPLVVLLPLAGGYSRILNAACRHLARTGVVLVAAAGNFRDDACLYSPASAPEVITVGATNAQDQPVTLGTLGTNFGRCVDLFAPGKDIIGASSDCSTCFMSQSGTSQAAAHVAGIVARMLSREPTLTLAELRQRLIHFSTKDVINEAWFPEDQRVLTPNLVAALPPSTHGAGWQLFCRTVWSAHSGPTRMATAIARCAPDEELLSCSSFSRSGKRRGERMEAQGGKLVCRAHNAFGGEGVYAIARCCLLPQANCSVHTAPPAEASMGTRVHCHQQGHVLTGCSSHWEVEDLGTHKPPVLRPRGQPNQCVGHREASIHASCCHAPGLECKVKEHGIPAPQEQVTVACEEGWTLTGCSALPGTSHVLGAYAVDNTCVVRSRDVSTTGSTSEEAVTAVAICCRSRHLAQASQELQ
Assay: ELISA, mAb coated, 1.2 nM antigen;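 further: antigen allowed to bind for 1 h at room temperature, then captured protein revealed with an HRP-linked polyclonal anti-myc antibody and read as optical density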
Description: as §3
B2 was tested, and the OD was under 0.4 od. B7 gave an OD of over 1 od. B5 was tested, and the OD was under 0.4 od. B8 was tested, and the OD was 0.4 to 1 od. Work on B6 yielded an OD of under 0.4 od.

These binders were tested against T1, Human PCSK9-myc-myc-his (assay: ELISA, mAb coated, 1.2 nM antigen;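 further: antigen allowed to bind for 1 h at room temperature, then captured protein revealed with an HRP-linked polyclonal anti-myc antibody and read as optical density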).
Description: as §3
For B2, the OD was over 1 od. Binder B7 has an OD of over 1 od. For B5, the OD was over 1 od. In the case of B8, the OD is reported as over 1 od. Binder B9 has an OD of over 1 od. B6 gave an OD of over 1 od.

These binders were tested against T4, hPCSK9(D374Y)-mmh (human, UniProt Q8NBP7 31-692) (assay: ELISA, mAb coated, 1.2 nM antigen;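 further: antigen allowed to bind for 1 h at room temperature, then captured protein revealed with an HRP-linked polyclonal anti-myc antibody and read as optical density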).
T4 construct: also called hPCSK(D374Y)-mmh
Description: as §3
Work on B2 yielded an OD of over 1 od. B7 was tested, and the OD was over 1 od. With B5 the OD was over 1 od. In the case of B8, the OD is reported as over 1 od. With B9 the OD was over 1 od. Binder B6 has an OD of over 1 od.

What follows are binders tested against Chimeric protein #2 (hPro-mCat-mC-term-mmh) (human; mouse, UniProt Q80W65 19-694) (assay: ELISA, mAb coated, 1.2 nM antigen).
Description: as §3
In the case of B2, the OD is reported as under 0.4 od. For B7, the OD was under 0.4 od. For B5, the OD was under 0.4 od. Binder B8 has an OD of under 0.4 od. In the case of B9, the OD is reported as 0.4 to 1 od. With B6 the OD was over 1 od.

These binders were tested against T5, mouse PCSK9, myc-myc-his tagged (mouse, UniProt Q80W65 35-694) (assay: ELISA, mAb coated, 1.2 nM antigen).
T5 construct: also called mPCSK9-mmh; mPCSK9
Description: as §3
B2 showed an OD of under 0.4 od. Work on B7 yielded an OD of under 0.4 od. B5 gave an OD of under 0.4 od. B8 showed an OD of under 0.4 od. B9 gave an OD of under 0.4 od. With B6 the OD was under 0.4 od.

Each binder was assayed against T6, tagged rhesus monkey (Macaca mulata) PCSK9 (rhesus monkey (Macaca mulata), UniProt A8T666 31-692) (assay: SPR, 25C).
T6 construct: also called mmPCSK9-mmh; mmPCSK9
T6 sequence (A8T666 31-692 limits assumed): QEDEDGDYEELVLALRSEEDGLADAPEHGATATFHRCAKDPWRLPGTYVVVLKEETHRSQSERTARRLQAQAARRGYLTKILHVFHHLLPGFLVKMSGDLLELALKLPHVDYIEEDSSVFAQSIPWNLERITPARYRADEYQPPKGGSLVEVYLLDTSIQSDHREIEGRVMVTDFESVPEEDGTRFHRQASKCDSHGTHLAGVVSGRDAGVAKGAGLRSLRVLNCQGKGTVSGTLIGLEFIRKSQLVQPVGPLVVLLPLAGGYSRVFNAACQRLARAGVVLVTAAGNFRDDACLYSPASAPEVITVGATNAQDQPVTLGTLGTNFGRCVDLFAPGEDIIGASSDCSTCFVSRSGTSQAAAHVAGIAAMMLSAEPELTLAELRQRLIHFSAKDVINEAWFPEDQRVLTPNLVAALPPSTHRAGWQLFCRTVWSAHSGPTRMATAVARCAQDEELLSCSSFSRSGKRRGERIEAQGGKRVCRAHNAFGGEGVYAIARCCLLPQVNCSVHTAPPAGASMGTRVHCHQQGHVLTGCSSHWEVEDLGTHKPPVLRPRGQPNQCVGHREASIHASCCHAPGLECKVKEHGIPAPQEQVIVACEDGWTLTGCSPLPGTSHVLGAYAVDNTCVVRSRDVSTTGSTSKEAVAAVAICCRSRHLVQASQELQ
In the case of B1, the T1/2 is reported as 51 min and the koff is reported as 0.000229 s⁻¹. B2 showed a T1/2 of 3 min and a koff of 0.00369 s⁻¹. B5 showed a T1/2 of 1 min and a koff of 0.00806 s⁻¹. Binder B9 has a T1/2 of 76 min and a koff of 0.000152 s⁻¹. With B6 the T1/2 was 36 min and the koff was 0.000317 s⁻¹.
